In series [1] the target is T1, thrombin, BODIPY-labeled (human, UniProt P00734;P00734 328-363;364-622). Description: single-particle fluorescence microscopy of coated microspheres.
The target of series [2] is T1, thrombin, BODIPY-labeled. Description: single-particle fluorescence microscopy of aptamer-coated microspheres.

Experimental findings from PMC9080894 are described below.

As for CCAACCACAGTGTT (ssDNA, 3'-NH2) [NH2-com], the binding result with thrombin, BODIPY-labeled [1] is “no binding”.

With TTCACTGTGGTTGGTGTGGTTGG (structured_DNA, 5'-NH2) [ssTBA], the binding result with thrombin, BODIPY-labeled [2] is on record as “binds”.
